Experimental data from the DeepSol protein solubility set.

Test: soluble on expression in E. coli; label from the status in PepcDB or PDB records
With “MGSDKIHHHHHHMVLVVAGFDPSGGAGIIQDVKVLSALGVKTHAVISALTVQNENRVFSVNFRDWEEMRKEIEVLTPPRVIKVGLSAPETVKRLREMFPDSAIVWNVVLESSSGFGFQDPEEVKKFVEYADYVILNSEEAKKLGEYNNFIVTGGHEKGNTVKVKYRDFVFEIPRVPGEFHGTGCAFSSAVSGFLAMSYPVEEAIRSAMELLKKILERSSGVVETEKLLRDWYRYDTLNTLDEILPEFLEIGHLTVPEVGQNVSYALPWAKNEFEVGKFPGRIRLKEGKAVAVSCASFKDRSHTARMAVTMMRYHPHMRCVVNVRYEREYVERAKKRGLKVFHYDRSKEPKEVQEKEGQSMVWMIEQAIAELKSPPDVIYDEGWWGKEAMIRVFGRNPKEVLEKIKLMVRE” the “soluble on expression in E. coli” value was “not soluble”. In the case of “MGSDKIHHHHHHMVMYLENPGKLDRKFFTESILRYTGYRRPEDKVPPKNGVDTGIISIGNGKVMAVTTDPFYFDPVFGYEDSAWFAYHILASDITTAGVYPEYMTVDLNLPISISNEEIARMWKTVHEEAYKYKTSIITGHTARYANTGFPMVGGATMFGFTDDDKYVTTAMARPGDIMIMTKTAGIEAASLLTRIFPNHVKKNLGEDKYRYGFELFRKLSTVDEAIQAIEFGTRKAITSMHDATEGGLLGAVYEVAEASGNGVSIDKEAIHVDDYVKEIHSLFGIDPLRSISEGTLLMTIDPEYADEFMKRLTKSGIDSYVIGKMTTKDEGIKFKDGSEPIGEPEKDPFWYAVEKSMKMGLS”, the “soluble on expression in E. coli” value was “not soluble”. In the case of “MGSDKIHHHHHHMVSLMEHGMLPDAVIRSGIRRLLMKRLQEESCGDTEADRARQREFFEQLSHSPLAMETGAANKQHYELPPDFFSLVLGPRRKYSCCLYPPGVDDLATAEEAMLRLTCQRAGLADGMDILELGCGWGSLTLWMAEHYPDARITAVSNSAPQRQFIQGACRGRGFGNVRVITADMNDFTIEKTFDRVVSVEMFEHMRNYAELLRRIAGWLKDDGRLFVHIFCHRTLAYLFQTDGEDDWMGRYFFTGGIMPSDHLLFYFNDHLAVEDHWRVGGRHYQRTCDGWLERMDTERRKILEIFWDVYEGDAPVWFQRWRVFFMACSELFGYSEGNEWFVSHYLLRKNSAGVLCGNRQKALSFSGVCK”, the “soluble on expression in E. coli” value was “not soluble”. In the case of “MGSDKIHHHHHHMVVNLTYMLNTEDRKFIIDSVKKGYKVTELARMFNVTPRRIQQILHESEMPESAKDSELTDEEKKFIDDLWDRYRIGSRTIYYLLRSKGLNVSYYKIYNYMKMKRMVQIKDNALIVNGKKAEPPLSTVLLDYHQKNFNDQYAIFCVDMTTKKILSYAESVKITSDVVSGVL”, the “soluble on expression in E. coli” value was “not soluble”. For “MGSDKIHHHHHHMVVSIGVFDGVHIGHQKVLRTMKEIAFFRKDDSLIYTISYPPEYFLPDFPGLLMTVESRVEMLSRYARTVVLDFFRIKDLTPEGFVERYLSGVSAVVVGRDFRFGKNASGNASFLRKKGVEVYEIEDVVVQGKRVSSSLIRNLVQEGRVEEIPAYLGRYFEIEGIVHKDREFGRKLGFPTANIDRGNEKLVDLKRGVYLVRVHLPDGKKKFGVMNVGFRPTVGDARNVKYEVYILDFEGDLYGQRLKLEVLKFMRDEKKFDSIEELKAAIDQDVKSARNMIDDIINSKFEKEG”, the “soluble on expression in E. coli” value was “not soluble”. In the case of “MGSDKIHHHHHHMWFAVLSSNEVRRKPVGVRRLGRDLVFWRDSLGKVYALEDFCVHRRARLSAGKVINDRIQCPFHGFEYDGNGRVRLIPALGKNYKVPDRFRVNSYPVYEKNNIIWLWSGEGEPEKEPKFFDDIDEDFAYAEFRELWNVPFPRAVENQLDVMHLPFVHRTTIGRGNRTLVHGPVVKWIDEDSFIFYVFNEVDRGQRVKRPEELSGEESRVYLEFIFPNLWQNHISEGTRVVAFFVPVDRQKTMIYLRFYVKMTGLKPVDSIIARLSMPLNRIILHQDRRVVETQERDIRKDVLVQGDLPIMEFRKRLYKEKKLIDFLFGGGQ”, the “soluble on expression in E. coli” value was “not soluble”. For “MGSDKIHHHHHHMWKSISQVLAEQFGAYYFIKHKEKLYSGEMNEIWLINDEVQTVFVKINERSYRSMFRAEADQLALLAKTNSINVPLVYGIGNSQGHSFLLLEALNKSKNKQSSFTIFAEKIAQLHQIQGPDKYGLDFDTWLGPIYQPNDWQTSWAKFFSENRIGWQLQICKEKGLIFGNIDLIVQIVADTLSKHNPKPSILHGNLWIENCIQVDDKIFVCNPACYWGDRECDIAFSSLFEPFPTNFYQRYNEIYPLEEGYLERKLIYQLYYLLNFSYRYYNKKQSYVSLTQKLINQILHKIDK”, the “soluble on expression in E. coli” value was “not soluble”. With “MGSDKIHHHHHHMWPDRHAKHLTLGRSRQQMLEFENVSKSFWTGTQRKVILDRVSFRVELGKSMGILAPNGTGKSTLINMMAGLEKPDEGVIRRGCNISFPLGFMGGVVGRLSAMENSRYIARLYGMDPDYIEAYCRWLCGLGEYFDQPLGTYSSGMRARFSFALMLALDFDMYLIDEGMPASTDVEFNKKAGAILEERLRTTTIVIVSHQPATLEQFARQAAVLMDGQLHVFDTLEEAKQLYDYQTQG” the “soluble on expression in E. coli” value was “not soluble”. In the case of “MGSDKIHHHHHHMYAETDFIALSALQHYVFCPRQCALIHLEQVWSENLYTAEGREMHERADSAVTSYREGVKVTRSVPLRSAVLGVSGVADVVEWHRREGGFEPFPVEYKRGKPKKHDADKVQLCAQAMCLEEMRSCAIPSGALFYGQTMRRLDVVFDEVLRSKTVAAAAGVHGLFSLGVTPHPEFGPKCKLCSLVDECLPEVLERHGSAKRYVQKLYRELSGEEI”, the “soluble on expression in E. coli” value was “not soluble”. For “MGSDKIHHHHHHMYIEEIKRVLSDQRDVLEEKMSRKLVERDVPNLLKYLEVPNALAILGVRRSGKSTLSLLLLKRKKFAYVNFDDERFYNLNIGDLNKVLQAIYELYGVDVDYIVLDEIHNVKGWELFVSRLRDVKKLIITGSNSKMLSGELATYLTGRHSDYILFPFSFQEYLKYKEVKVEYFSTRVISTLKNELEKYTEVGGFPEALMLGKEQVNVIYNDILFKDIVSRYKIREIEKFREFARTVISYYSNEISLSSIAKILGLNKRTVEKWASGLREAYLTFFIPRYGEKLKQRLTYNKKVYVVDVGIVSNLAIKGKDKGRIIENLVAIKLLRELQGEEKLYYMRNNYEVDFYDEKNSRLIQVTYTSDKIENREIRGLIEGYRLTKAKKLLIITWDLEEKIQVEGVNIEVLPLYRFLLE”, the “soluble on expression in E. coli” value was “not soluble”. In the case of “MGSDKIHHHHHHMYIESFKQHFSAIDDHRQSAKVTYPLFDVLFGSLCAVIASSNGWFEIREYILGHHSWFKKQKMFIDGIPADDTIARIVSMIEPDSFNACFLAWMKSVHQLTNGEVIAIDGKTLRGSYNRDDRSSTIHMISAYASANKLVLGQLKAEQKSNEITAIPTLLKMLDLRGALVTIDAMGCQTAIATTIIDKGGDYLLAVKNNQGNLAKAINKAFSSHRSAGLSDDHVNIEKSHGRIENRACFVLSSAELDGDFTHWEALKSIVMVESFRAVKGKTASLEYRYYISSKVLSAEQALSATREHWGIESMHWVLDVSMNEDECQIYKNNGAENLAYLRHMSLNMLQKEPTKLSIVGKRKRCLMNPAFLEKVLIAGLCAPTK”, the “soluble on expression in E. coli” value was “not soluble”. For “MGSDKIHHHHHHMYKEYSPCSVLAPFIYHFWEYKGETRNGLKFNIPPHGRSDFVFIVGNAADCIRNSLIMKPYHSYFFGPMNTFTELVAHTNFIYIIGVRFRPCGLFRFIDIPLNELTNQGIDSHEFPVLFSQSFIYQLCESNQNPIDAIEHELVRQVYKNNTDTEKQISYAVSLISRQKGIVSIKELATEACLGLRQFERKFKFYTGYSPKEYSRIVKFWNAIHLLKSNTSFDNFLSVAIQAGYYDTPHLYREVKRLSGNTPNAFLSLSTNEKVEVLHIEL”, the “soluble on expression in E. coli” value was “not soluble”. For “MGSDKIHHHHHHMYLITSAAMVASELQSEFGPLPPCFLPVGNKRLFHHQLALIPAGERTIITLPEGFTPGPYDSQSLKDYGVELLYLPPTLSLGESIVYALIQLEFADDEPLYILHGDTLFDSLPRQTDCLGLSQVEDNYNWAEFDAQSGTLRPYHAELRPSSELISNGFFSFSAPRTLIRYITQAKGDFIAGLNGYIDDKGLTPITLPHWYDFGHSHTYYQSKSRMTTQRAFNGMAIQGQVVKKFSRNKHKLAAEANWYQSLPGPMRGYIPQLLGCDESPELFGYSIEYLHLTALNELYVFSQLPAFAWRKVLKACCQFLKDASSYSVADAQTLSGLFMDKTLSRLEDFASQSGISVAQENRINGALRPSLLELARISREYLPKDNGRQHLLHGDFCFSNILYDFRTCNIKVIDPRGLDGNDKQTIHGNGLYDIAKLAHSVLGLYDAIIAGYFKAERLGQNLDFSIAITPRREQIMADFVRLMASEFAVSEAELYAMQIQLFLSMLPLHSDRPDRQLGFIGNAYRLYDRLLACTGNPS”, the “soluble on expression in E. coli” value was “not soluble”. For “MGSDKIHHHHHHMYMYVNDKLVKEEEAIISPFDHGYMYGLGLFETFRLYEGHPFLLDDHFVRLEEGLRALAIDWTYNRSHVLHQLATLCNKNGVRNAYIRWNVSAGPGPIGLYTDTYKEPTVIIYMKSLPQGLSTRKTGTLLELRRNTPEGDRRLKSHHFLNNVLGKREVAKDPQTEGIFLTEDGVLAEGLTSNVFWVKNGVVYTPSVDTGILNGITRQFVLTLCDKEGIPWREGRYPKEALLKADGAFITNSIQEIVTLTSVGQAEFNQDEAVIMSLRKSYQKYCTKLWSKNEIKEGKQDVNNTCK”, the “soluble on expression in E. coli” value was “not soluble”. For “MGSDKIHHHHHHMYSSEKMQWFAMRATYRRGMQIKGLLDQKGINSFIPMRYEIHLKNGHRRRELVPVIRDIVFVHTTQSELQRIKYGIPYFQYMMDIRNGEKIIVPDEQMRRFIAVAGTYDEQIIFFSPDEVNLRKGTKVRITGGQFEGYEGVFVKVKGSRDRRVVISLQGILALAMATLSPDLIEVIEEPKKRNHD”, the “soluble on expression in E. coli” value was “not soluble”. With “MGSDKIHHHHHHMYTYKIGISKEEHDNFIKNSSQTNLLQSSSWAKVKDEWENERIGFYQDSKLVASASILIRPLPLGMTMFYIPRGPVMNYQDKDLVNFVLTSLKKFAKRKRALFIKFDPFILLNHHQIDEEAINNPQAQTIIDTLKHLGCEWLGQTSDMGETIQPRFQANIYAEGFSEANLSKKIRQSIRTAKNKGVSIRFGGYELLADFSDLMKKTEDRKSIHLRGIDYYRKLLDNYPQHSFITLASLNLKERLTELESQRKKAQNNLAKFGDNVKPSKIDNTKKEIERLSDEIAFLQEHLSQGKDTVPLSGTLSLEFGKTSENVYAGMDDEFRRYQAAIYTWFATANHAFERGSHWQNMGGIENDLSGGLYNFKSKFKPEIEEFIGEFNLPVSPLYKLANIAYTIRKKRRSKH” the “soluble on expression in E. coli” value was “not soluble”. With “MGSDKIHHHHHHNDDPGKDPDVVTYDFKNLPADSGAKPTEDQMSAVVATFVDEVALPTYKDMLTKMTAYKNAVDKFIASGSKNDLADACDAWRAVRVPWEQSEAFLFGVADLAQLDPSLDSWPLDKNGIEEIIATGEFSKISGAVDEDAEDGPQNLRGFHTAEKMLFLDGEPRDLETSPFAKNELEYLKLVSERMLSDTQDLYNGWLKGLGTSDVPSSYAEAMKKHDGSAYSIGNVYQAIELMLNGNNGMAGISNEVGSAKITDPVTAWNGSNKDATDPNNPGVLAVESWYSWNSLDDYKNNIVSIKNAYFGGRDLDEESASESSLHALTKMINPTLDSLMVVQIDKTIDAINAIGYPFRNNLGDTEHINTATEACADLTTGLGVVKSKFTN” the “soluble on expression in E. coli” value was “not soluble”. For “MGSDKIHHHHHHNEDDIFDESSAQRAIASVNECQEILKGAANGWLLEYYTGEDGEYGGFNVLARFDGNNVIMAADFATDNYEIGEESTSLYKVESYQGTELSFDSYNELIHEFCEPSGYNSPGYAGDYEFVFRSVSKEKIVLTGKKHGVTLIMTPLPAETNWQEKLTNIANVVSQASYVTYKLIVNGQEITKMGQEEHAFSVTKVDETGETTVSLYPFIYTEEGIKMYEPLVVNGVEINNFKWDNENLTYICTDTGVDAKIEFYCPEGYLNYLGNYILQLANGQRIQLELKQKMIGKSFAMNFALSGTPIEFVYNYNMTTDCIDVPSQTVGVYQGYNVLLYPGIPGGNFYADDSAVFQGRIANTDPLTIKFTYVNNPICTLMLLVYQKTDGWYGFSTMFQDVTLIKVD”, the “soluble on expression in E. coli” value was “not soluble”.
